Measurements: patent US12415869B2, “Chemically induced protein dimerization systems” (UNIVERSITY OF WASHINGTON, priority 2019, dated 2025)

Experiments:
Type in all cases: binding
[1] = Bio-Layer Interferometry (BLI) of immobilized anchor binders with unlabeled CBD or THC; details: unlabeled CBD, anchor binder immobilized on Super Streptavidin biosensors, steady-state analysis, read-out: dissociation constants (KDs) of anchor binder to CBD
Text: To confirm that the nanobody binding only requires CBD, and not the linker between CBD and biotin or the streptavidin, we measured the binding affinity using unlabeled CBD. Anchor-binder hits were expressed in E. coli periplasm and purified by nickel-affinity and size-exclusion chromatography (SEC). Purified nanobodies were enzymatically biotinylated (FIG. 7a-b) and immobilized on streptavidin biosensors to quantify binding affinities to CBD or THC by Bio-Layer Interferometry (BLI) (FIG. 8a).
The nanobody binding kinetics was analyzed using an Octet™ RED96 system (ForteBio) and Streptavidin (SA) or Super Streptavidin (SSA) biosensors. […] Dissociation constants (KDs) of anchor binder-ligand interactions were calculated based on a steady-state analysis using Octet™ RED96 data analysis software. […] KDs, kons, and koffs of the interactions between anchor binder-ligand complexes and dimerization binders were calculated based on a heterogeneous ligand model global fit (2:1) of the data and simulated binding equilibria of the anchor binder and CBD described in Supplementary Notes. […]
We first determined the binding affinity between the CBD anchor 14 (CA-14) and CBD via steady-state analysis (FIG. 8). […] We observed minimal binding between DBs and CBD, but the KDs are too weak to be determined (data not shown).

CA-14-CBD complex = assay: BLI of immobilized dimerization binders with CA-14 pre-equilibrated with CBD; details: for Koff / Kon: CBD +
Text: (§1) With the purified DB nanobodies in hand, we first sought to determine their binding affinities to the CA-14-CBD. CBD might directly bind to selected dimerization binders, which can affect the affinity measurement. To rule out this possibility, the four nanobodies were biotinylated (FIG. 7c) and immobilized on streptavidin biosensors, and the interaction with CBD was detected by BLI. Only minimal binding between CBD and the dimerization binders was detected (data not shown). Moreover, the binding-dissociation dynamics of the CA-14-CBD complex can also affect the measurement of dimerization binder affinities. To address this, the affinity was measured by a BLI assay in which the biosensor-immobilized dimerization binders were interacted with CA-14 pre-equilibrated with varied concentrations of CBD (FIG. 9a). The concentrations of the CA-14-CBD complex in equilibrium were calculated based on input CA-14 and CBD concentrations. The CA-14-CBD complex concentration was approximated to be constant because only a minimal fraction of the complex bound to the biosensor tips during the BLI assay. It was confirmed that CA-14 only interacts with the dimerization binders in the presence of CBD (FIG. 3a). The KDs of the four dimerization binders varied from 56.4 nM to 19 μM (Table 5).
The nanobody binding kinetics was analyzed using an Octet™ RED96 system (ForteBio) and Streptavidin (SA) or Super Streptavidin (SSA) biosensors. For the anchor-binder analysis, 200 nM biotinylated anchor binders were immobilized on SSA biosensors with a binding assay buffer (1×PBS, pH 7.4, 0.05% Tween 20, 0.2% BSA, 3% methanol; Note: because CBD and THC were dissolved in methanol to make stock solutions, 3% methanol was added to the buffer to fairly compare samples and controls). Serial dilutions of CBD and THC were used for the anchor binder assays. Dissociation constants (KDs) of anchor binder-ligand interactions were calculated based on a steady-state analysis using Octet™ RED96 data analysis software. For the dimerization-binder analysis, 200 nM biotinylated dimerization binders were immobilized on SA biosensors with the binding assay buffer and then assayed with 1 μM CA-14 pre-equilibrated with serial dilutions of CBD or THC. KDs, kons, and koffs of the interactions between anchor binder-ligand complexes and dimerization binders were calculated based on a heterogeneous ligand model global fit (2:1) of the data and simulated binding equilibria of the anchor binder and CBD described in Supplementary Notes.
In order to determine the binding kinetics of our nanobody CID system we performed a series of bio layer interferometry (BLI) experiments. In all experiments we used an Octet RED96 system (ForteBio) and Streptavidin Biosensors (ForteBio). 200 nM biotinylated protein (FIGS. 7b & 4C) were immobilized on biosensors (Super Streptavidin, SSA used for anchor binder; Streptavidin, SA used for dimerization binder) with a binding assay buffer (1×PBS, pH 7.4, 0.05% Tween 20, 0.2% BSA, 3% methanol; Note: because CBD and THC were dissolved in methanol to make stock solutions, 3% methanol was added to the buffer to fairly compare samples and controls). Ligand loading was followed by a quenching step using free biotin. All experiments were performed using four measurements to control for sensor drift and unspecific binding: • No ligand, no analyte • With ligand, no analyte • No ligand, with analyte • With ligand, with analyte
Next, we wanted to determine the binding affinity between CA-14 bound to CBD (referred to as CA-14*) and a panel of DBs. We observed no detectable binding between CA-14 and any of the DBs (FIG. 3a). We also rely on the observation that the DBs have weak binding to CBD, and therefore we can assume that only CA-14* binds the DB loaded to the sensor. We control the CA-14* concentration by using a fixed concentration of 1 μM CA-14 pre-incubated to equilibrium with six different concentrations of CBD. […]

[2] = BLI of immobilized dimerization binders with CBD alone
Text: as §1, with “It was confirmed that CA-14 only interacts with the dimerization binders in the presence of CBD (FIG. 3a). The KDs of the four dimerization binders varied from 56.4 nM to 19 μM (Table 5).” left out
We first determined the binding affinity between the CBD anchor 14 (CA-14) and CBD via steady-state analysis (FIG. 8). […] We observed minimal binding between DBs and CBD, but the KDs are too weak to be determined (data not shown). […]

B1: CA-14: anchor binder nanobody; CDR1 SRSRQYD, CDR2 SNQDQPP, CDR3 FKQHHANGA (SEQ ID NO: 1-3) (protein)
VHH: EVQLQASGGGFVQPGGSLRLSCAASGSTSRQYDMGWFRQAPGKEREFVSAISSNQDQPPYYADSVKGRFTISRDNSKNTVYLQMNSLRAEDTATYYCAFKQHHANGAYWGQGTQVTVSS
modifications: left off: small tags and cut ends
**Q.** For B1, which Kd [1] is on record?
**A.** 6 µM

B2: DB-21: dimerization binder nanobody; CDRs TTYGQTN, GLQGRDL, FHDFLRMWE (SEQ ID NO: 70-72) (protein)
VHH: EVQLQASGGGFVQPGGSLRLSCAASGTTYGQTNMGWFRQAPGKEREFVSAISGLQGRDLYYADSVKGRFTISRDNSKNTVYLQMNSLRAEDTATYYCAFHDFLRMWEYWGQGTQVTVSS
modifications: left off: small tags and cut ends
**Q.** Which results are given for B2?
**A.** Kd (CA-14-CBD complex; BLI, CA-14* = CA-14 bound to CBD, read-out: CA-14*'s affinity to DB-21 (KBC/α)): 0.056 µM; dissociation rate koff (CA-14-CBD complex; CA-14 with CBD): 0.000617 s⁻¹; Koff (CA-14-CBD complex): 6.17 10^−4s^−1; Kon (CA-14-CBD complex): 0.11 10^5 M^−1s^−1; binding between CBD and the dimerization binders ([2]; BLI, CBD alone, data not shown): very weakly; Kd ([2]; worked out from KBC/α 56 nM with α=1,000 as a reasonable guess, read-out: KBC (DB-21's affinity to CBD)): 56 µM

B3: DB-11: dimerization binder nanobody; CDRs TTSDNDT, WNGGRDE, YQDNRSWQE (SEQ ID NO: 40-42) (protein)
VHH: EVQLQASGGGFVQPGGSLRLSCAASGTTSDNDTMGWFRQAPGKEREFVSAISWNGGRDEYYADSVKGRFTISRDNSKNTVYLQMNSLRAEDTATYYCAYQDNRSWQEYWGQGTQVTVSS
modifications: left off: small tags and cut ends
**Q.** Which results are given for B3?
**A.** Koff (CA-14-CBD complex): 840 10^−4s^−1; Kon (CA-14-CBD complex): 0.61 10^5 M^−1s^−1

B4: DB-6: dimerization binder nanobody; CDRs RFSWGEE, WAATPWQ, DEWHIGHVS (SEQ ID NO: 25-27) (protein)
VHH: EVQLQASGGGFVQPGGSLRLSCAASGRFSWGEEMGWFRQAPGKEREFVSAISWAATPWQYYADSVKGRFTISRDNSKNTVYLQMNSLRAEDTATYYCADEWHIGHVSYWGQGTQVTVSS
modifications: left off: small tags and cut ends
**Q.** With B4 as the molecule, how does the Koff (CA-14-CBD complex) read?
**A.** 1,820 10^−4s^−1

**Q.** What about the Kon (CA-14-CBD complex) of the same molecule?
**A.** 0.096 10^5 M^−1s^−1

B5: DB-18: dimerization binder nanobody; CDRs GYSRADD, FGETDSF, YHNYTNMFE (SEQ ID NO: 61-63) (protein)
VHH: EVQLQASGGGFVQPGGSLRLSCAASGGYSRADDMGWFRQAPGKEREFVSAISFGETDSFYYADSVKGRFTISRDNSKNTVYLQMNSLRAEDTATYYCAYHNYTNMFEYWGQGTQVTVSS
modifications: left off: small tags and cut ends
**Q.** With B5 as the molecule, how does the Koff (CA-14-CBD complex) read?
**A.** 227 10^−4s^−1

**Q.** What about the Kon (CA-14-CBD complex) of the same molecule?
**A.** 0.41 10^5 M^−1s^−1
